Measured values from the supplement of paper PMC7877785.
± gives the uncertainty stated by the source.

Test: self-splicing fitness, log relative to wild type (ln ratio); higher = more splicing; Tetrahymena group I intron in knt gene, E. coli kanamycin selection, DiMSum; sequences stand for … in CUCUCU…GGAGGGAAAAGUUAUCAGGCAUGCACCUGGUAGCUAGUCUUUAAACCAAUAGAUUGCAUCGGUUUAAAAGGCAAGACCGUCAAAUUGCGGGAAAGGGGUCAACAGCCGUUCAGUACCAAGUCUCAGGGGAAACUUUGAGAUGGCCUUGCAAAGGGUAUGGUAAUAAGCUGACGGACAUGGUCCUAACCACGCAGCCAAGUCCUAAGUCAACAGAUCUUCUGUUGAUAUGGAUGCAGUUCACAGACUAAAUGUCGGUCGGGGAAGAUGUAUUCUUCUCAUAAGAUAUAGUCGGACCUCUCCUUAAUGGGAGCUAGCGGAUGAAGUGAUGCAACACUGGAGCCGCUGGGAACUAAUUUGUAUGCGAAAGUAUAUUGAUUAGUUUUGGAGUACUCGUGGUCG
How it was run: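 Fitness was computed with DiMSum as the error-weighted combination of replicate fold changes, kanamycin versus none, each normalised to wild type. The library randomised all eight intron nucleotides of the P1ex region, with the intron placed in the knt kanamycin-resistance gene on pET-22b(+) in E. coli BL21(DE3). Six replicate transformations were grown overnight at 37°C or 30°C on LB agar with or without 25 μg/mL kanamycin, plus 100 μg/mL carbenicillin, 50 μM IPTG and 0.2% rhamnose. Pooled colonies were amplicon-sequenced on an Illumina HiSeq 2500.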

Sequence	self-splicing fitness (ln) (30 °C)	self-splicing fitness (ln) (37 °C)
AAAAAGCAAUAUUACGAAAA	-2.26 ± 0.17	-0.664 ± 0.14
AAAAAGCAAUAUUACGAAGU	-2.08 ± 0.13	-0.998 ± 0.15
AAAAAGCAAUAUUACGACGG	-1.76 ± 0.17	-1.12 ± 0.21
AAAAAGCAAUAUUACGACUA	-0.0366 ± 0.1	0.028 ± 0.1
AAAAAGCAAUAUUACGAGUA	-1.68 ± 0.12	-0.884 ± 0.11
AAAAAGCAAUAUUACGCACA	-0.661 ± 0.067	-0.183 ± 0.087
AAAAAGCAAUAUUACGCAGA	-2.35 ± 0.15	-1.86 ± 0.14
AAAAAGCAAUAUUACGCAGG	-2.42 ± 0.15	-1.03 ± 0.14
AAAAAGCAAUAUUACGCAGU	-1.99 ± 0.15	-2.19 ± 0.2
AAAAAGCAAUAUUACGCCCC	-0.356 ± 0.25	0.308 ± 0.34
AAAAAGCAAUAUUACGCCCG	-0.481 ± 0.16	0.243 ± 0.23
AAAAAGCAAUAUUACGCGAA	-2.07 ± 0.12	-1.19 ± 0.16
AAAAAGCAAUAUUACGCUUA	-1.36 ± 0.13	-0.916 ± 0.12
AAAAAGCAAUAUUACGGAAC	-2.97 ± 0.16	-1.77 ± 0.2
AAAAAGCAAUAUUACGGACG	-0.378 ± 0.064	0.25 ± 0.084
AAAAAGCAAUAUUACGGCGG	-1.18 ± 0.059	-0.131 ± 0.077
AAAAAGCAAUAUUACGGGCG	-0.625 ± 0.075	-0.721 ± 0.091
AAAAAGCAAUAUUACGGUCC	-0.603 ± 0.084	0.0637 ± 0.11
AAAAAGCAAUAUUACGUCCA	-0.18 ± 0.076	0.113 ± 0.11
AAAAAGCAAUAUUACGUCUC	-1.51 ± 0.078	-0.62 ± 0.093
AAAAAGCAAUAUUACGUGAG	-0.91 ± 0.056	-0.523 ± 0.092
AAAAAGCAAUAUUACGUGGG	-3.51 ± 0.13	-2.03 ± 0.13
AAAAAGCAAUAUUACGUUAC	-2.57 ± 0.14	-1.91 ± 0.15
AAAAAGCAAUAUUACGUUUC	-2.04 ± 0.13	-3.26 ± 0.28
AAAAAGCAAUAUUACGUUUU	-2.42 ± 0.13	-2.39 ± 0.14

Sequence	self-splicing fitness (ln) (30 °C)	self-splicing fitness (ln) (37 °C)
AAACAGCAAUAUUACGAACG	-2.5 ± 0.12	-0.625 ± 0.12
AAACAGCAAUAUUACGACAU	-0.514 ± 0.011	-0.112 ± 0.032
AAACAGCAAUAUUACGAGGC	-3.32 ± 0.17	-3.12 ± 0.28
AAACAGCAAUAUUACGCAAA	-2.87 ± 0.12	-1.75 ± 0.1
AAACAGCAAUAUUACGCGAA	-1.95 ± 0.096	-1.43 ± 0.11
AAACAGCAAUAUUACGCGAC	-2.77 ± 0.21	-1.68 ± 0.14
AAACAGCAAUAUUACGCGAU	-2.98 ± 0.16	-2.42 ± 0.17
AAACAGCAAUAUUACGCGUU	-3.11 ± 0.11	-1.1 ± 0.1
AAACAGCAAUAUUACGCUCU	-0.653 ± 0.085	0.413 ± 0.086
AAACAGCAAUAUUACGGAGG	-4.68 ± 0.36	-1.86 ± 0.2
AAACAGCAAUAUUACGGAUC	-2.82 ± 0.11	-1.73 ± 0.11
AAACAGCAAUAUUACGGAUG	-3.43 ± 0.16	-3 ± 0.2
AAACAGCAAUAUUACGGAUU	-1.67 ± 0.068	-0.362 ± 0.079
AAACAGCAAUAUUACGGCUA	-0.275 ± 0.064	-0.0695 ± 0.076
AAACAGCAAUAUUACGUCCU	-0.281 ± 0.07	0.347 ± 0.094
AAACAGCAAUAUUACGUUAA	-2.66 ± 0.11	-0.816 ± 0.092
AAACAGCAAUAUUACGUUAU	-2.23 ± 0.072	-1.22 ± 0.085
AAACAGCAAUAUUACGUUUU	-3.81 ± 0.11	-3 ± 0.15
AAAGAGCAAUAUUACGAACA	-2.07 ± 0.35	-2.02 ± 0.4
AAAGAGCAAUAUUACGACAG	-3.56 ± 0.3	-2.86 ± 0.36
AAAGAGCAAUAUUACGACCG	-3.83 ± 0.18	-2.5 ± 0.19
AAAGAGCAAUAUUACGACCU	-1.39 ± 0.15	-0.748 ± 0.16
AAAGAGCAAUAUUACGACUA	-2.38 ± 0.3	-1.12 ± 0.25
AAAGAGCAAUAUUACGAUGG	-3.63 ± 0.33	-1.89 ± 0.25
AAAGAGCAAUAUUACGAUGU	-2.08 ± 0.17	-1.37 ± 0.23

Sequence	self-splicing fitness (ln) (30 °C)	self-splicing fitness (ln) (37 °C)
AAAGAGCAAUAUUACGAUUU	-0.695 ± 0.14	0.468 ± 0.13
AAAGAGCAAUAUUACGCCGG	-3.8 ± 0.42	-2.53 ± 0.24
AAAGAGCAAUAUUACGCCUG	-2.57 ± 0.28	-1.76 ± 0.33
AAAGAGCAAUAUUACGCGAU	-2.63 ± 0.35	-2.04 ± 0.34
AAAGAGCAAUAUUACGCGGA	-3.29 ± 0.33	-2.33 ± 0.22
AAAGAGCAAUAUUACGCUCC	-2.57 ± 0.3	-2 ± 0.41
AAAGAGCAAUAUUACGGAAA	-2.38 ± 0.26	-2.53 ± 0.41
AAAGAGCAAUAUUACGGACA	-2.68 ± 0.3	-1.81 ± 0.32
AAAGAGCAAUAUUACGGCUA	-1.28 ± 0.11	-1.13 ± 0.13
AAAGAGCAAUAUUACGGGUA	-2.81 ± 0.26	-1.88 ± 0.27
AAAGAGCAAUAUUACGGGUG	-3.95 ± 0.21	-1.88 ± 0.19
AAAGAGCAAUAUUACGGGUU	-3.43 ± 0.16	-2.78 ± 0.21
AAAGAGCAAUAUUACGGUAA	-1.74 ± 0.3	-1.67 ± 0.26
AAAGAGCAAUAUUACGGUUU	-2.16 ± 0.11	-1.06 ± 0.12
AAAGAGCAAUAUUACGUAAC	-3.77 ± 0.31	-2.88 ± 0.43
AAAGAGCAAUAUUACGUAUG	-3.72 ± 0.25	-2.06 ± 0.17
AAAUAGCAAUAUUACGAAGG	-2.61 ± 0.21	-1.45 ± 0.27
AAAUAGCAAUAUUACGACAC	-1 ± 0.11	0.319 ± 0.12
AAAUAGCAAUAUUACGACCA	-0.537 ± 0.12	-0.525 ± 0.17
AAAUAGCAAUAUUACGACCU	-0.0682 ± 0.092	0.265 ± 0.13
AAAUAGCAAUAUUACGACGA	-0.696 ± 0.099	-0.228 ± 0.14
AAAUAGCAAUAUUACGACUA	-0.367 ± 0.12	0.06 ± 0.13
AAAUAGCAAUAUUACGAUGU	-1.21 ± 0.078	-0.875 ± 0.089
AAAUAGCAAUAUUACGCAUU	-2.89 ± 0.14	-1.52 ± 0.12
